In patent US20190183966A1 one finds EC50, recruitment of the co-receptor beta-Klotho data, which are given here for three substances.

Chain of human FGF21 receptor (FGFR1) stably expressed on PathHunter U2OS cells (human) (P11362 22-822): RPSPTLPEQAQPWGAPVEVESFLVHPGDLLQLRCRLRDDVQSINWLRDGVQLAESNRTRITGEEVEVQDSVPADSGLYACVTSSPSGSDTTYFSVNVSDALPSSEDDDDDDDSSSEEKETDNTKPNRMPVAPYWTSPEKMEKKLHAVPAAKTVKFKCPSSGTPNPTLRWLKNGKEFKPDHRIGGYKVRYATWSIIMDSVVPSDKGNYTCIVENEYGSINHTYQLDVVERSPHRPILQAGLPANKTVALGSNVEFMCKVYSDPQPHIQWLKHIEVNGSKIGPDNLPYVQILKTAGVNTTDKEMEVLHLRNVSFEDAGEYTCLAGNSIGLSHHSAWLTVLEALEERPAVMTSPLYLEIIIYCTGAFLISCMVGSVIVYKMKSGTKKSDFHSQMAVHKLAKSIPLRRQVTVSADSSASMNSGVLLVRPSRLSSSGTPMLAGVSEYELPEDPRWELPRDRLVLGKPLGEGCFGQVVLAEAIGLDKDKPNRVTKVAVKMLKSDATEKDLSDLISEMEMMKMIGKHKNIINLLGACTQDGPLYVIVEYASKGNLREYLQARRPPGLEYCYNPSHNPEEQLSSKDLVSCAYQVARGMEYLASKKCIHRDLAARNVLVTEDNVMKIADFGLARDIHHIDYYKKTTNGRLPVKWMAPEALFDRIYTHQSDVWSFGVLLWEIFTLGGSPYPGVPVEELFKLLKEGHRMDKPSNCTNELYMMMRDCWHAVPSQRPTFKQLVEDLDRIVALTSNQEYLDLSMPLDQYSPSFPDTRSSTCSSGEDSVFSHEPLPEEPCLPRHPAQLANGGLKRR

The assay concerns the target human FGF21 receptor (FGFR1) stably expressed on PathHunter U2OS cells (human) (UniProt P11362). As to the kind of experiment: cell-based or functional assay.
Substance “VitD-(3)-PEG2K-FGF21 (from UniProt Q9NSA1 32-209) (ligand)” came in with an EC50, recruitment of the co-receptor beta-Klotho of 0.4 µg/mL.

The substance “FGF21 protein with I3C substitution and His6 tag (from UniProt Q9NSA1 32-209) (ligand)” came in with an EC50, recruitment of the co-receptor beta-Klotho of 0.16 µg/mL.

In turn, “VitD-(25)-PEG2K-FGF21 (from UniProt Q9NSA1 32-209) (ligand)” had an EC50, recruitment of the co-receptor beta-Klotho of 0.13 µg/mL.
